The text below walks through data of patent publication US20030153020.

The data set concerns the target T1, LPXTG peptide DABCYL-QALPETGEE-EDANS.
T1 chain: QALPETGEE

B1: SrtADN (SrtA in which the NH2-terminal membrane anchor segment is replaced with a six histidine tag) (protein)
chain: KPHIDNYLHDKDKDEKIEQYDKNVKEQASKDKKQQAKPQIPKDKSKVAGYIEIPDADIKEPVYPGPATPEQLNRGVSFAEENESLDDQNISIAGHTFIDRPNYQFTNLKAAKKGSMVYFKVGNETRKYKMTSIRDVKPTDVGVLDEQKGKDKQLTLITCDDYNEKTGVWEKRKIFVATEVK
With B1, the “LPXTG peptide cleavage activity of MTSET-inactivated SrtADN after 10 mM DTT” value is given as “restored 80% of LPXTG peptide cleavage activity”, the “cleavage of LPXTG peptide in the presence of 0.2 M NH2OH (fluorescence)” value was “Addition of 0.2 M NH2OH to this reaction resulted in an increase in fluorescence”, the “cleavage of LPXTG peptide measured as an increase in fluorescence” value is “SrtADN catalyzed cleavage of the substrate” and the “hydroxylaminolysis of LPXTG peptide after pre-incubation with MTSET” value is listed as “pre-incubation with MTSET abolished all enzymatic activity”.
